Starred links: 1 amine or outer side, 2 acyl side, 3 side chain; linkers in the order of their positions; H or OH if unused. Positions of bridges follow the written chain, without caps; N, C: chain ends. Non-standard residues stand in square brackets, D forms with d. dPhe(4-NHAc) = 4-acetamido-D-phenylalanine, CC(=O)Nc1ccc(C[C@@H](N[*:1])C(=O)[*:2])cc1; dPhe(4-tBu) = CC(C)(C)c1ccc(C[C@@H](N)C(=O)O)cc1; dPhe(4-Br) = N[C@H](Cc1ccc(Br)cc1)C(=O)O; dPhe(4-I) = N[C@H](Cc1ccc(I)cc1)C(=O)O; d2Nal = N[C@H](Cc1ccc2ccccc2c1)C(=O)O; d(αMeF) = C[C@@](N)(Cc1ccccc1)C(=O)O; NMeR = CN[C@@H](CCCNC(=N)N)C(=O)O; Tic = O=C(O)[C@@H]1Cc2ccccc2CN1; dTic = O=C(O)[C@H]1Cc2ccccc2CN1; Cit = NC(=O)NCCC[C@H](N)C(=O)O; Nle = CCCC[C@H](N)C(=O)O; R2 = not defined here
B1: CTX-1233 (peptide)
peptide: Ac-R[Nle]CH[dPhe(4-I)]R[dW]C-NH2
modifications: disulfide 3-8
SMILES: CCCC[C@H](NC(=O)[C@H](CCCNC(=N)N)NC(C)=O)C(=O)N[C@H]1CSSC[C@@H](C(N)=O)NC(=O)[C@@H](Cc2c[nH]c3ccccc23)NC(=O)[C@H](CCCNC(=N)N)NC(=O)[C@@H](Cc2ccc(I)cc2)NC(=O)[C@H](Cc2c[nH]cn2)NC1=O
B2: CTX-1231 (peptide)
peptide: Ac-R[Nle]CH[dPhe(4-Br)]R[dW]C-NH2
modifications: disulfide 3-8
SMILES: CCCC[C@H](NC(=O)[C@H](CCCNC(=N)N)NC(C)=O)C(=O)N[C@H]1CSSC[C@@H](C(N)=O)NC(=O)[C@@H](Cc2c[nH]c3ccccc23)NC(=O)[C@H](CCCNC(=N)N)NC(=O)[C@@H](Cc2ccc(Br)cc2)NC(=O)[C@H](Cc2c[nH]cn2)NC1=O
B3: CTX-1226 (peptide)
peptide: R2-RC[dA]R[dPhe(4-Br)]R[dW]C-NH2
modifications: disulfide 2-8; reading uncertain; also: printed as N-term. Mod. R2; Arg-cyclo(Cys-D-Ala-Arg-D-Phe(4-Br)-Arg-D-Trp-Cys)-NH2
B4: CTX-1237 (peptide)
peptide: Ac-RC[dA]R[dY]R[dW]C-NH2
modifications: disulfide 2-8
SMILES: CC(=O)N[C@@H](CCCNC(=N)N)C(=O)N[C@H]1CSSC[C@@H](C(N)=O)NC(=O)[C@@H](Cc2c[nH]c3ccccc23)NC(=O)[C@H](CCCNC(=N)N)NC(=O)[C@@H](Cc2ccc(O)cc2)NC(=O)[C@H](CCCNC(=N)N)NC(=O)[C@@H](C)NC1=O
B5: CTX-1249 (peptide)
peptide: Ac-RC[dA]P[dPhe(4-Br)]R[dW]C-NH2
modifications: disulfide 2-8
SMILES: CC(=O)N[C@@H](CCCNC(=N)N)C(=O)N[C@H]1CSSC[C@@H](C(N)=O)NC(=O)[C@@H](Cc2c[nH]c3ccccc23)NC(=O)[C@H](CCCNC(=N)N)NC(=O)[C@@H](Cc2ccc(Br)cc2)NC(=O)[C@@H]2CCCN2C(=O)[C@@H](C)NC1=O
B6: CTX-1240 (peptide)
peptide: Ac-RC[dA]R[d(αMeF)]R[dW]C-NH2
modifications: disulfide 2-8
SMILES: CC(=O)N[C@@H](CCCNC(=N)N)C(=O)N[C@H]1CSSC[C@@H](C(N)=O)NC(=O)[C@@H](Cc2c[nH]c3ccccc23)NC(=O)[C@H](CCCNC(=N)N)NC(=O)[C@@](C)(Cc2ccccc2)NC(=O)[C@H](CCCNC(=N)N)NC(=O)[C@@H](C)NC1=O
B7: CTX-1242 (peptide)
peptide: Ac-RC[dA]R[dPhe(4-tBu)]R[dW]C-NH2
modifications: disulfide 2-8
SMILES: CC(=O)N[C@@H](CCCNC(=N)N)C(=O)N[C@H]1CSSC[C@@H](C(N)=O)NC(=O)[C@@H](Cc2c[nH]c3ccccc23)NC(=O)[C@H](CCCNC(=N)N)NC(=O)[C@@H](Cc2ccc(C(C)(C)C)cc2)NC(=O)[C@H](CCCNC(=N)N)NC(=O)[C@@H](C)NC1=O
B8: CTX-1255 (peptide)
peptide: Ac-RC[dA]R[dPhe(4-Br)]R[dF]C-NH2
modifications: disulfide 2-8
SMILES: CC(=O)N[C@@H](CCCNC(=N)N)C(=O)N[C@H]1CSSC[C@@H](C(N)=O)NC(=O)[C@@H](Cc2ccccc2)NC(=O)[C@H](CCCNC(=N)N)NC(=O)[C@@H](Cc2ccc(Br)cc2)NC(=O)[C@H](CCCNC(=N)N)NC(=O)[C@@H](C)NC1=O
B9: CTX-1254 (peptide)
peptide: Ac-RC[dA]R[dPhe(4-Br)]R[d2Nal]C-NH2
modifications: disulfide 2-8
SMILES: CC(=O)N[C@@H](CCCNC(=N)N)C(=O)N[C@H]1CSSC[C@@H](C(N)=O)NC(=O)[C@@H](Cc2ccc3ccccc3c2)NC(=O)[C@H](CCCNC(=N)N)NC(=O)[C@@H](Cc2ccc(Br)cc2)NC(=O)[C@H](CCCNC(=N)N)NC(=O)[C@@H](C)NC1=O
B10: CTX-1248 (peptide)
peptide: Ac-RC[dA][NMeR][dPhe(4-Br)]R[dW]C-NH2
modifications: disulfide 2-8
SMILES: CC(=O)N[C@@H](CCCNC(=N)N)C(=O)N[C@H]1CSSC[C@@H](C(N)=O)NC(=O)[C@@H](Cc2c[nH]c3ccccc23)NC(=O)[C@H](CCCNC(=N)N)NC(=O)[C@@H](Cc2ccc(Br)cc2)NC(=O)[C@H](CCCNC(=N)N)N(C)C(=O)[C@@H](C)NC1=O
B11: CTX-1260 (peptide)
peptide: Ac-RC[dA]R[dPhe(4-Br)]R[dA]C-NH2
modifications: disulfide 2-8
SMILES: CC(=O)N[C@@H](CCCNC(=N)N)C(=O)N[C@H]1CSSC[C@@H](C(N)=O)NC(=O)[C@@H](C)NC(=O)[C@H](CCCNC(=N)N)NC(=O)[C@@H](Cc2ccc(Br)cc2)NC(=O)[C@H](CCCNC(=N)N)NC(=O)[C@@H](C)NC1=O
B12: CTX-1222 (peptide)
peptide: Ac-RC[dA]R[dPhe(4-Br)]R[dW]CR[dF]-NH2
modifications: disulfide 2-8
SMILES: CC(=O)N[C@@H](CCCNC(=N)N)C(=O)N[C@H]1CSSC[C@@H](C(=O)N[C@@H](CCCNC(=N)N)C(=O)N[C@H](Cc2ccccc2)C(N)=O)NC(=O)[C@@H](Cc2c[nH]c3ccccc23)NC(=O)[C@H](CCCNC(=N)N)NC(=O)[C@@H](Cc2ccc(Br)cc2)NC(=O)[C@H](CCCNC(=N)N)NC(=O)[C@@H](C)NC1=O
B13: CTX-1253 (peptide)
peptide: Ac-RC[dA]R[dPhe(4-Br)][Cit][dW]C-NH2
modifications: disulfide 2-8
SMILES: CC(=O)N[C@@H](CCCNC(=N)N)C(=O)N[C@H]1CSSC[C@@H](C(N)=O)NC(=O)[C@@H](Cc2c[nH]c3ccccc23)NC(=O)[C@H](CCCNC(N)=O)NC(=O)[C@@H](Cc2ccc(Br)cc2)NC(=O)[C@H](CCCNC(=N)N)NC(=O)[C@@H](C)NC1=O

target: T1, human MC4R receptor (human, UniProt P32245 1-332); assay: cell-based or functional assay
T1 sequence (P32245 whole entry): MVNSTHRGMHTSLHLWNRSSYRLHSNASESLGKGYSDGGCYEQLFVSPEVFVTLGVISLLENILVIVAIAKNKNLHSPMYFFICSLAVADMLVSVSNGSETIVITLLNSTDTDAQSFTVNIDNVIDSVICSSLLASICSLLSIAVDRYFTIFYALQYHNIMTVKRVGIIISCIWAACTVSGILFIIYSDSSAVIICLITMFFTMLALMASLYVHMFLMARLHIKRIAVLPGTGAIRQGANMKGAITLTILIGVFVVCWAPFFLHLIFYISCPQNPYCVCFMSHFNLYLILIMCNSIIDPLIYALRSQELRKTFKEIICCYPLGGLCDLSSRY

Binder | MC4R selectivity vs MC1R | MC4R selectivity vs MC3R
B1 | 0.26 | 1.88
B2 | 0.19 | 3.04
Ac-RC[dA]R[dPhe(4-Br)]R[dTic]C-NH2 (disulfide 2-8) [CTX-1256] | 0.003 | 0.08
B3 | 1.33 | 3.21
B4 | 0.24 | 0.08
B5 | 5.08 | 0.45
B6 | 0.46 | 0.41
Ac-RC[dA][dR][dPhe(4-Br)]R[dW]C-NH2 (disulfide 2-8) [CTX-1250] | 1.06 | 11
Ac-RC[dA]RF[NMeR][dW]C-NH2 (disulfide 2-8; not fully specified (residue 5)) [CTX-1251] | 0.11 | 3.73
Ac-RC[dA]R[dPhe(4-Br)]R[Tic]C-NH2 (disulfide 2-8) [CTX-1259] | 0.01 | 0.12
B7 | 0.64 | 0.08
B8 | 0.05 | 0.24
B9 | 0.26 | 2.19
B10 | 1.31 | 1.36
Ac-RC[dA]R[dPhe(4-Br)][dR][dW]C-NH2 (disulfide 2-8) [CTX-1252] | 0.04 | 0.06
B11 | 0.01 | 0.05
Ac-RC[dA]R[dPhe(4-NHAc)]R[dW]C-NH2 (disulfide 2-8) [CTX-1245] | 0.08 | 0.02
B12 | 0.1 | 0.33
B13 | 0.57 | 0.53

target: T1, human MC4R receptor; assay: cell-based or functional assay; remark: another data set of the same source

Binder | % max activation [%] | cAMP EC50 [nM]
B1 | 16 | 2.2
B2 | 64 | 2.3
Ac-RC[dA]R[dPhe(4-Br)]R[dTic]C-NH2 (disulfide 2-8) [CTX-1256] | 29 | 7240
B3 | 71 | 3.8
B4 | 61 | 998
B5 | 22 | 14
B6 | 81 | 76
Ac-RC[dA][dR][dPhe(4-Br)]R[dW]C-NH2 (disulfide 2-8) [CTX-1250] | 8.7 | 185
Ac-RC[dA]RF[NMeR][dW]C-NH2 (disulfide 2-8; not fully specified (residue 5)) [CTX-1251] | 31 | 25
Ac-RC[dA]R[dPhe(4-Br)]R[Tic]C-NH2 (disulfide 2-8) [CTX-1259] | 70 | 1250
B7 | 5.8 | 26
B8 | 60 | 31
B9 | 22 | 4.2
B10 | 47 | 2
Ac-RC[dA]R[dPhe(4-Br)][dR][dW]C-NH2 (disulfide 2-8) [CTX-1252] | 4.4 | 885
B11 | 38 | 4930
Ac-RC[dA]R[dPhe(4-NHAc)]R[dW]C-NH2 (disulfide 2-8) [CTX-1245] | 34 | 4450
B12 | 79 | 30
B13 | 58 | 7.6

target: human MC3R (human, UniProt P41968 1-323); assay: cell-based or functional assay
Sequence (P41968 whole entry): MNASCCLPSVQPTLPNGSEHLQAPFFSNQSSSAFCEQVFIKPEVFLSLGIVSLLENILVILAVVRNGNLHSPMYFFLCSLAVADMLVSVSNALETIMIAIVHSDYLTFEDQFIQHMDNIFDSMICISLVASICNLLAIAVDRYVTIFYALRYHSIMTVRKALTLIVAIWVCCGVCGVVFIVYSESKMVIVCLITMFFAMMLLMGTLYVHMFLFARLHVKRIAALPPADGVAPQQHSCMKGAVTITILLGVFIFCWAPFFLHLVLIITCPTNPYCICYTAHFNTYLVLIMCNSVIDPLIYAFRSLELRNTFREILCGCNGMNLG

Binder | % max activation [%] | cAMP EC50 [nM]
B1 | 22 | 4.1
B2 | 59 | 7
Ac-RC[dA]R[dPhe(4-Br)]R[dTic]C-NH2 (disulfide 2-8) [CTX-1256] | 17 | 592
B3 | 29 | 12
B4 | 19 | 79
B5 | 1.9 | 6.1
B6 | 27 | 31
Ac-RC[dA][dR][dPhe(4-Br)]R[dW]C-NH2 (disulfide 2-8) [CTX-1250] | 10 | 2090
Ac-RC[dA]RF[NMeR][dW]C-NH2 (disulfide 2-8; not fully specified (residue 5)) [CTX-1251] | 30 | 93
Ac-RC[dA]R[dPhe(4-Br)]R[Tic]C-NH2 (disulfide 2-8) [CTX-1259] | 27 | 146
B7 | 2.8 | 2.2
B8 | 28 | 7.5
B9 | 5.5 | 9.2
B10 | 18 | 2.8
Ac-RC[dA]R[dPhe(4-Br)][dR][dW]C-NH2 (disulfide 2-8) [CTX-1252] | 1.1 | 57
B11 | 13 | 239
Ac-RC[dA]R[dPhe(4-NHAc)]R[dW]C-NH2 (disulfide 2-8) [CTX-1245] | 6.3 | 73
B12 | 38 | 9.8
B13 | 9.2 | 4
